The values below come from PMC8629902, “Structure–function relationships explain CTCF zinc finger mutation phenotypes in cancer”.

For this data set, the target named is T1, CTCF WT (UniProt P49711 1-727).
T1 sequence: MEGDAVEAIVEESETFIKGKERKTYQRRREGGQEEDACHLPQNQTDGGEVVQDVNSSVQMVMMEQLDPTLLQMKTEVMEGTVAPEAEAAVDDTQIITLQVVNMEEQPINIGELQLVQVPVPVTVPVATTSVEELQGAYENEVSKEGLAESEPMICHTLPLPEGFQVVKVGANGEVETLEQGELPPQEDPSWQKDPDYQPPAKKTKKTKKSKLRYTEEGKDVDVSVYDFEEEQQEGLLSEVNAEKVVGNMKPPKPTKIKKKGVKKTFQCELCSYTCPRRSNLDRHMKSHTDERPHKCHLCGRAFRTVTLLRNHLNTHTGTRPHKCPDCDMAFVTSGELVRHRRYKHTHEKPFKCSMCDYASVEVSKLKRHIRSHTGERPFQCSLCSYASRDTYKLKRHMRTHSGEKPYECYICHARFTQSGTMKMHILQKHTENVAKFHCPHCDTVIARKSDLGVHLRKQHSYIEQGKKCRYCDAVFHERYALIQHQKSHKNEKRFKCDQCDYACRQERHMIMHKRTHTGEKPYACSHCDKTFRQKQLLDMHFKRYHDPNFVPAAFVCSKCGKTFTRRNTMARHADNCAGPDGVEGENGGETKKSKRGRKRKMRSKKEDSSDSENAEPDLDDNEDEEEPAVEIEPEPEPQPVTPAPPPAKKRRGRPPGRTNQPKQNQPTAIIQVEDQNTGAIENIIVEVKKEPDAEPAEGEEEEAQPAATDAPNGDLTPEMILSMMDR
Nature of the data set: pull-down; TnT lysate protein with bead-bound DNA, 3 h at 4 C; beads washed before and after binding in PIB (250 mM NaCl, 50 mM Tris pH 8.0, 0.25% IGEPAL, EDTA-free protease inhibitor); anti-CTCF Western blot. The conditions noted are these: protein: ivt; tags: FLAG (pcDNA3.1-FLAG); label: 5' biotin on S3 strand; blunt. In general terms: A western blot detects proteins with antibodies after separation by electrophoresis.

B1: core CTCF binding site probe (dsDNA)
DNA 1: AGGACCAGCAGGGGGCGCA
DNA 2: TGCGCCCCCTGCTGGTCCT
Turning to B1, the binding result was “binds”.
